Entries after “also recorded” stand apart in the source; their conditions may differ.
Assays:
HCT116 and SW480 cells = assay: EMT markers by immunoblotting and RT–qPCR; format: cell-based, human; conditions: GREM1-CM + GREM1 BAb, + SB505124 (1 µM) or + different concentrations of sb4 (sb4: immunoblotting)
Method: (§1) To investigate the effect of secreted GREM1 on CRC cells, an in vitro GREM1 secretion system was established using HEK293 cells. Stably GREM1-expressing cells (pcDNA3.1-GREM1) and empty-vector transfected cells (pcDNA3.1) were cultured in DMEM/F12 medium with 10% FBS until 40% confluence. After complete removal of the normal culture medium, HEK293-GREM1 and HEK293-Vec cells were continuously cultured in DMEM/F12 medium without FBS for 5 days before medium collection. GREM1 or Vector conditioned medium (GREM1-CM/Vec-CM) was then centrifuged at 1000 rpm for 30 min and the supernatant was collected for further study.
(§2) Protein was extracted from the cells with RIPA buffer (Beyotime, P0018) or NP40 lysis buffer (Beyotime, P0013F) and separated by SDS-PAGE, and transferred to polyvinylidene difluoride membranes. […] Band intensity was quantified using Fiji (ImageJ) by grayscale analysis.
(§3) Total RNA was extracted using Trizol reagent (Invitrogen, 15596026). […] The SYBR Green Premix Pro Taq HS qPCR Kit (Accurate Biology, AG11701) was then used to quantify mRNA expression according to the manufacturer’s instructions. All results were calculated using the 2^−ΔΔCt method. […]

[1] = tested on: BMP signaling (p-SMAD1/5/9 versus p-SMAD2/3); conditions: sb4; cited from earlier work
Source text: Considering that GREM1 is a canonical antagonist of BMP and that BMPRs exert their function through phosphorylation of SMAD1/5/9 (p-SMAD1/5/9), we sought to determine whether GREM1 regulates EMT via BMPR superfamily pathways. […] This definitive exclusion of BMPR–SMAD1/5/9 involvement establish ...

HCT116 cells = assay: Subcutaneous transplantation of GREM1-CM-pretreated HCT116 cells in nude mice; format: in vivo, human cells in nude mice; conditions: subcutaneous model, HCT116 cells pretreated with GREM1-CM (Figures S8A–C)
Method: For cecum-to-liver metastasis model, 1 × 10^6 MC38-luc cells were resuspended in 50 µL of PBS and injected into the cecum of GD mice or control mice (Grem1-CreER^T2/Rosa-LSL-DTA mice) (n = 6 mice in each group); 5 × 10^6 HCT116-luc cells transduced with lentivirus carrying a pLV or pLV-GREM1 were injected into the cecum of NOG mice (n = 5 mice in each group). SB505124 was administered via intraperitoneal injection at a dose of 10 mg/kg once every other day. The metastases were examined every 5 days post injection using an IVIS Lumina Imaging System. Mice were euthanized between 2 and 6 weeks after injection. […] Mice were euthanized 4 weeks after injection. The tumor tissues were collected for further evaluation.
Figure S8. SB505124 inhibits GREM1-CM-induced EMT and metastasis of CRC in vivo. […] D, RT–qPCR analysis of epithelial marker CDH1 and mesenchymal markers CTNNB1, SNAI1, ZEB1 in subcutaneous tumor tissues from the indicated treatment groups. n = 3 independent experiments. E-G, Representative IF images (E) and quantification (F, G) of E-CAD (green), SNAIL (red), and DAPI (blue) staining in tumors from the indicated groups. […] H, I, Representative IVIS images (H) and quantification (I) of NOG mice that were injected with HCT116-luc cells in the cecum wall and treated with either SB505124 or vehicle via abdominal injection. Liver metastases were imaged and quantified using the IVIS Lumina Imaging System (n = 5 mice per group). For B–D, F, G and I, data are presented as mean ± s.e.m. P values were calculated using one-way ANOVA with Bonferroni multiple-comparison test (B–D, F, and G) or two-tailed Student’s t-test (I).

ACVR1C = assay: Co-immunoprecipitation of GREM1 and ACVR1C; format: binding, human; conditions: HCT116 cells, HA-tagged GREM1, anti-HA
Method: (§4) HCT116 cells were transfected with the indicated plasmids and lysed in NP40 lysis buffer (Beyotime, P0013F) supplemented with protease inhibitor cocktail (Thermo, 78446). Lysates were incubated with the indicated Anti-Flag nanobody magarose beads (Ktsm-life, KTSM1338), Anti-HA nanobody magarose beads (Ktsm-life, KTSM1335) or Anti-GFP nanobody magarose beads (Ktsm-life, KTSM1334) overnight at 4 °C. The protein complex was washed four times with the NP40 lysis buffer, eluted with 1×loading buffer (Beyotime, P0015) by boiling for 5 min, followed by mass spectrometry and immunoblotting with the indicated antibodies.
(§5) Protein was extracted from the cells with RIPA buffer (Beyotime, P0018) or NP40 lysis buffer (Beyotime, P0013F) and separated by SDS-PAGE, and transferred to polyvinylidene difluoride membranes. Primary antibodies against GREM1 (1:1,000, SinoBiological, 50016-R117), ACVR1C (1:1,000, Thermo, PA587475), Flag-tag (1:1,000, CST, 14793), HA-tag (1:1,000, CST, 3724), E-Cadherin (1:1,000, CST, 3195), β-Catenin (1:1,000, CST, 8480), ZEB1 (1:1,000, CST, 3396), Snail (1:1,000, CST, 3879), SMAD2/3 (1:1,000, CST, 8685), p-SMAD2/3 (1:1,000, CST, 8828), SMAD1 (1:1,000, CST, 6944), p-SMAD1/5/9 (1:1,000, CST, 13820), TGFβ (1:1,000, CST, 3709), TGFβR1 (0.3 µg/mL, R&D, AF3025), β-actin (1:5,000, Beyotime, AF0003) and GAPDH (1:5,000, Beyotime, AF0006) were used in this study. Peroxidase-conjugated secondary antibody (1:10,000, Cell Signaling Technology, 7074, 7076) was used and signal was visualized using an enhanced chemiluminescence assay (ECL, Thermo), according to the manufacturer’s protocol. Band intensity was quantified using Fiji (ImageJ) by grayscale analysis.

TGFβR1 = assay: Co-immunoprecipitation of GREM1 and TGFβR1; format: binding, human; conditions: HCT116 cells, HA-tagged GREM1, anti-HA
Method: as §4, §2

ACVR1C-ECD = assay: MST binding of ACVR1C-ECD-Fc to GREM1-His or ACTIVIN B-His; parameters: species or system human
Source text: (§6) Expi293F cells were transfected with a pcDNA3.4-ACVR1C-ECD-Fc and pcDNA3.4-ACVR1C-ECD-Fc-double mutant (E85A/T101A) expression vector to produce the target protein, which was subsequently purified using a Protein G column. Briefly, the coding sequence (CDS) of the human ACVR1C extracellular domain (ACVR1C-ECD, NM_145259.3, residues 1–113) fused to an Fc tag was cloned into the pcDNA3.4 vector. Expi293F cells were transfected with this construct, the supernatant was harvested 5 days post transfection.
(§7) MST was carried out on a Monolith NT.115 instrument (NanoTemper Technologies GmbH, MO-L011). To evaluate ACVR1C-ECD or ACVR1C peptide or ACVR1C-ECD-double mutant (E85A/T101A) binding to GREM1-His or ACTIVIN B-His, an increasing concentration of purified ACVR1C-ECD-Fc protein (0–27.5 µM) or ACVR1C peptide (0–2.3 µM) or ACVR1C-ECD-double mutant (0–27.5 µM) was incubated with 50 nM red-fluorescently labeled (NanoTemper Technologies GmbH, MO-L011) GREM1-His protein (R&D, 5190-GR) or ACTIVIN B-His protein (SinoBiological, 10814-H08H). Experiments were carried out in a PBS buffer pH 7.4 using premium capillaries (NanoTemper Technologies GmbH, MO-K025).

GREM1 = molecular target: T1, GREM1 (Homo sapiens, UniProt O60565); assay: MST binding of ACVR1C-ECD double mutant (E85A/T101A) to GREM1-His; conditions: double mutant 0–27.5 µM vs 50 nM red-labeled GREM1-His, PBS pH 7.4
T1 construct: His; purchased R&D 5190-GR
T1 sequence (O60565 25-184): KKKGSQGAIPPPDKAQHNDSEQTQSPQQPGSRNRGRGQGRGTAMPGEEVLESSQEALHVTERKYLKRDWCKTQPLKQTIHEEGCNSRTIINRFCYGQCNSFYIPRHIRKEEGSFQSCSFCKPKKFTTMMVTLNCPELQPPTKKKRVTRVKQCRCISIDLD
Source text: as §6, §7

[2] = tested on: TGFβ or TGFβR1 in CRC cells; assay: Immunoblotting TGFβ and TGFβR1 expression; format: cell-based, human; conditions: CRC cells (HCT116, SW480), rhGREM1 gradient
Source text: as §5

SW480 and HCT116 cells = assay: Endogenous GREM1 expression by RT–qPCR and immunoblotting; format: cell-based, human; conditions: increasing concentrations of rhGREM1, RT–qPCR (n = 3) and immunoblotting
Source text: as §5, §3

[3] = tested on: BMPR–SMAD1/5/9 pathway in HCT116 or SW480 cells; assay: Immunoblotting p-SMAD1/5/9 (BMPR pathway); format: cell-based, human; conditions: rhGREM1 gradient
Source text: as §5

[4] = tested on: ACVR1C–SMAD2/3 pathway in HCT116 and SW480 cells; assay: Immunoblotting p-SMAD2/3 (ACVR1C pathway); format: cell-based, human; conditions: SW480 and HCT116 cells, increasing concentrations of rhGREM1
Method: as §1, §2

[5] = tested on: CRC cells (SW480, HCT116, and MC38); assay: GREM1 withdrawal assay, RT–qPCR and immunoblot; format: cell-based, human (SW480, mouse (MC38); conditions: rhGREM1 or rmGrem1 200 ng/mL 24 h, then GREM1-free medium 2 and 4 days
Method: To determine whether tumor cells that have acquired signaling autonomy can sustain GREM1 expression in the absence of external stimulation, we performed a GREM1 withdrawal assay. CRC cells (SW480, HCT116, and MC38) were first pulsed with rhGREM1 or recombinant mouse GREM1 (rmGrem1) for 24 h to initiate the signaling response. The medium containing rhGREM1 or rmGrem1 was then thoroughly removed, replaced with fresh GREM1-free medium, and the cells were cultured for an additional 4 days. […] This persistent, self-sustaining expression supports our conclusion that the initial rhGREM1 or rmGrem1 stimulation triggers a positive feedback loop of GREM1 transcription within CRC cells.
as §2, §3

Brc1ccc(CSc2nc3ccccc3o2)cc1 [sb4]
GREM1-CM-induced EMT, effect of treatment (HCT116 and SW480 cells): failed to reverse GREM1-induced EMT | p-SMAD1/5/9 selectivity [1]: exclusively increases p-SMAD1/5/9 without affecting p-SMAD2/3

B1: GREM1: GREM1-His protein (R&D, 5190-GR) in MST; HA-tagged GREM1 in co-IP (protein)
chain: T1 sequence (O60565 25-184)
modifications: left off: HA, end not stated, kept | mCherry, end not stated, kept
notes: GREM1-His protein (R&D, 5190-GR) in MST; HA-tagged GREM1 in co-IP
effect on subcutaneous tumor proliferation (HCT116 cells): pro-proliferative effect | co-IP interaction with ACVR1C (ACVR1C): co-immunoprecipitates with ACVR1C; also recorded: interacted with ACVR1C specifically | co-IP interaction with TGFβR1 (TGFβR1): no such interaction was detected; also recorded: no direct interaction | affinity for ACVR1C relative to ACTIVIN B, in words (ACVR1C-ECD): superior affinity | fold higher affinity for ACVR1C-ECD than ACTIVIN B (ACVR1C-ECD; GREM1 Kd versus ACTIVIN B Kd): 12.6 fold | Kd (ACVR1C-ECD; Monolith NT.115, ACVR1C-ECD-Fc 0–27.5 µM vs 50 nM red-fluorescently labeled His-protein, PBS pH 7.4, premium capillaries, n = 3 independent experiments, mean ± s.e.m.): 67.7 ± 10.3 nM

B2: ACVR1C-ECD double mutant (E85A/T101A): human ACVR1C extracellular domain fused to an Fc tag, double mutant E85A/T101A (protein)
chain: ELSPGLKCVCLLCDSSNFTCQTEGACWASVMLTNGKEQVIKSCVSLPELNAQVFCHSSNNVTKTACCFTDFCNNITLHLPAASPNAPKLGPME
modifications: left off: Fc, end not stated, kept
binding of ACVR1C-ECD double mutant to GREM1 (GREM1): no detectable interaction

B3: rhGREM1: recombinant human GREM1 (protein)
chain: T1 sequence (O60565 25-184)
modifications: red fluorescent label (NanoTemper, MO-L011) in the MST assays; left off: His, end not stated, kept
notes: recombinant human GREM1
TGFβ or TGFβR1 expression [2]: No changes were observed across all doses tested | endogenous GREM1 expression (SW480 and HCT116 cells): dose-dependent upregulation of tumor GREM1 expression | p-SMAD1/5/9 [3]: suppressed the p-SMAD1/5/9 | p-SMAD2/3, concentration gradient [4]: dose-dependent increase in p-SMAD2/3 | endogenous GREM1 expression after withdrawal [5]: not only maintained but in some cases further increased even after the withdrawal of exogenous GREM1; also recorded: maintained elevated endogenous GREM1 expression even after withdrawal of exogenous GREM1
